Legend:
MMP-1 = target: T1, MMP-1 (Homo sapiens, UniProt P03956); details: MMP-13 to MMP-1; cited from earlier work
T1 sequence (P03956 100-469): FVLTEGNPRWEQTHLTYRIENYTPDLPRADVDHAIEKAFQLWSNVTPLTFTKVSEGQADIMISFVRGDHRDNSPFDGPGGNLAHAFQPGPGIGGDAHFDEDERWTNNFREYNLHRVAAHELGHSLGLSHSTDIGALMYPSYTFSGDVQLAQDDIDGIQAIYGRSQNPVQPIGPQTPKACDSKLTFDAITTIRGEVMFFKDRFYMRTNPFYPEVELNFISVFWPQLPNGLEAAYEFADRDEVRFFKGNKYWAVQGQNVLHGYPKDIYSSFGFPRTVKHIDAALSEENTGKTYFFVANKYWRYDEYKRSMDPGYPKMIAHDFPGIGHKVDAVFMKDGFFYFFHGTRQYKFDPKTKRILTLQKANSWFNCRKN

MMP-9 = MMP-9 (Homo sapiens, UniProt P14780); details: MMP-13 to MMP-9; cited from earlier work
Chain of MMP-9 (P14780 94-707, species assumed): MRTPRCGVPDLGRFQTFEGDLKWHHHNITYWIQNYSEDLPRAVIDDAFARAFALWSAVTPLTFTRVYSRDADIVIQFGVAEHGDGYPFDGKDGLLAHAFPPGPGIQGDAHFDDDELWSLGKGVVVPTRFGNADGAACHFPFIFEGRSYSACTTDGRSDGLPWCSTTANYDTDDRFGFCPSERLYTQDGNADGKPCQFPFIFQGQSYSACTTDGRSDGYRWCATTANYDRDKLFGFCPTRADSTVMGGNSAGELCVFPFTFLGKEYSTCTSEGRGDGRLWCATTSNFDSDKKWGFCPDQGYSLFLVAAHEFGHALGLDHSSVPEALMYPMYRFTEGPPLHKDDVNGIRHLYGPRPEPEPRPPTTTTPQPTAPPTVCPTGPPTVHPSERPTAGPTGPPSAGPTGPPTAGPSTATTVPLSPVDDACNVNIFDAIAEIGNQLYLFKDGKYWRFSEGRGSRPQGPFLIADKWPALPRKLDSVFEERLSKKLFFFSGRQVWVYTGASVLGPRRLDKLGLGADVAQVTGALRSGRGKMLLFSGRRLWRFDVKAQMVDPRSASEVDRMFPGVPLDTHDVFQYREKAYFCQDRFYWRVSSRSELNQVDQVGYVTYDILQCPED

MMP-3 = MMP-3 (Homo sapiens, UniProt P08254); details: MMP-13 to MMP-3; cited from earlier work
Chain of MMP-3 (P08254 100-477, species assumed): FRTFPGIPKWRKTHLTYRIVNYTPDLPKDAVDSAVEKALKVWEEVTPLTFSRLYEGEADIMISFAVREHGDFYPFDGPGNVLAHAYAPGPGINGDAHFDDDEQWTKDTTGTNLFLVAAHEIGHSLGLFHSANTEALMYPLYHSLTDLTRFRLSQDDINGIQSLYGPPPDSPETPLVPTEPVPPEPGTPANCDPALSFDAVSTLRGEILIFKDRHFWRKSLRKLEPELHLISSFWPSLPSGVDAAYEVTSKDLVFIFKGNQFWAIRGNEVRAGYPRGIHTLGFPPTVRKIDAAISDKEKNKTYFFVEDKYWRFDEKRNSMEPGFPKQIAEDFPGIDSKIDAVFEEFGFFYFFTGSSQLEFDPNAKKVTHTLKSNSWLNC

[1] = tested on: neural stem cells (NSCs) from adult hippocampus; experiment: NSC adhesion and proliferation on peptide-modified IPNs (CyQUANT); type: cell-based, rat
Protocol: Neural stem cells were isolated from the hippocampi of adult female Fischer 344 rats as previously described (Lai, K., et al., Nat Neurosci, 6(1):21-7 (2003)). Cells at (200-10,000 cells/well) were seeded onto peptide-modified IPNs and laminin-modified culture wells and incubated (37° C., 5% CO2) in serum-free media consisting of DMEM/Hams F-12 medium with N−2 supplement. These media conditions were supplemented with various soluble factors to modulate cell behavior: 20 ng·ml^−1 basic fibroblast growth factor (bFGF) for cell proliferation or 1 μM retinoic acid with 5 μM forskolin for neuronal differentiation. Wells were rinsed every 48 hrs with fresh media.
NSCs isolated from the adult hippocampus were seeded onto bsp-RGD(15)-modified IPNs at various cell densities over four orders of magnitude. […] 18(2):337-45 (2002)). Such spheres provide less precise control over the cellular microenvironment, due in part to spatial gradients in signaling and nutrients and internal necrosis.
For quantitative assays of proliferation, the NSCs were seeded at 1000 cells per well on various surfaces and grown for 3-6 days, and cell number was determined using a fluorescent dye that binds to nucleic acids, CyQUANT (Molecular Probes, Eugene, Oreg.). Briefly, cells grown on a particular surface for a fixed duration were washed once with phosphate buffer saline and lysed in the manufacturer's buffer with dye. Next, the fluorescent intensity of resulting solution was measured. […] Any increase in cell number on the negative control bsp-RGE(15)-modified IPNs reflected growth of weakly adherent neurospheres (FIG. 2d-e). About 10 pmol·cm^−2 bsp-RGD(15) was needed to support proliferation of NSCs, corresponding to ˜10^6 ligands per cell for the 10 μm diameter cells.

[2] = tested on: neural stem cells (NSCs) from adult hippocampus; experiment: NSC phenotype and differentiation on peptide-modified IPNs (qRT-PCR, immunofluorescent staining); type: cell-based, rat; details: 1 μM retinoic acid with 5 μM forskolin
Protocol: Neural stem cells were isolated from the hippocampi of adult female Fischer 344 rats as previously described (Lai, K., et al., Nat Neurosci, 6(1):21-7 (2003)). Cells at (200-10,000 cells/well) were seeded onto peptide-modified IPNs and laminin-modified culture wells and incubated (37° C., 5% CO2) in serum-free media consisting of DMEM/Hams F-12 medium with N-2 supplement. These media conditions were supplemented with various soluble factors to modulate cell behavior: 20 ng·ml^-1 basic fibroblast growth factor (bFGF) for cell proliferation or 1 μM retinoic acid with 5 μM forskolin for neuronal differentiation. Wells were rinsed every 48 hrs with fresh media. […] To assay phenotype, two methods were used: quantitative real time PCR (qRT-PCR) and immunofluorescent staining. […] Quantitative real time PCR was used as a complementary technique to accurately quantify specific cDNA concentrations in various cDNA samples from cells grown on IPNs and laminin (using a Bio-Rad Laboratories iCycler). GFAP expression levels were quantified as a marker for astrocytic differentiation of the progenitor cells. β-Tubulin-III was used as a marker for neurons. […] The plasmids were linearized by restriction digest and quantified by absorbance, and tenfold serial dilutions from 1 ng/μL to 10^-9 ng/μL were prepared to generate a standard curve. […]

αvβ3 integrin = αvβ3 integrin (Homo sapiens, UniProt P05106+P06756); details: high affinity; read-out: IC50, αvβ3 integrin binding; cited from earlier work
Chain of αvβ3 integrin (P06756 31-889 limits assumed): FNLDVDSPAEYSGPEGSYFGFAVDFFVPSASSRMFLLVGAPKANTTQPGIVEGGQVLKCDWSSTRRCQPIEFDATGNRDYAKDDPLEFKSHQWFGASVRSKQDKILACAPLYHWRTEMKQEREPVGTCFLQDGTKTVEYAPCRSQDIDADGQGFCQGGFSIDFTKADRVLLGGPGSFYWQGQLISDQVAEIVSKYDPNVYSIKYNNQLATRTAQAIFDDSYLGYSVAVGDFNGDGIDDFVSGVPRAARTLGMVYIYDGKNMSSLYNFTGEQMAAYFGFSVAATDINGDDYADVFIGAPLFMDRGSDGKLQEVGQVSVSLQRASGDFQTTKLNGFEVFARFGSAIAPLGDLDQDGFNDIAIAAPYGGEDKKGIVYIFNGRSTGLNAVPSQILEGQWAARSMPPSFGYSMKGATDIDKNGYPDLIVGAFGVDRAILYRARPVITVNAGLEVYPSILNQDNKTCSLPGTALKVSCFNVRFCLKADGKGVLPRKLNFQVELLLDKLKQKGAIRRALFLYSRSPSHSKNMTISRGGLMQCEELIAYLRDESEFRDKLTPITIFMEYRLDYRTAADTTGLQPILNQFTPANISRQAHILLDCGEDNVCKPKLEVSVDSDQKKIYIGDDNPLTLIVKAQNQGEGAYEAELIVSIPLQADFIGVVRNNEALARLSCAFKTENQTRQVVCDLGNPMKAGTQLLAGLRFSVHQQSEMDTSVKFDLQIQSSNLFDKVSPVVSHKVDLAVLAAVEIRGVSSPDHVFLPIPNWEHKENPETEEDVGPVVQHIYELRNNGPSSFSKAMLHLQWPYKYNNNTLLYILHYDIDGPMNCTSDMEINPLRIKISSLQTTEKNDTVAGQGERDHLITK
Chain of αvβ3 integrin (P06756 891-1048 partner limits assumed): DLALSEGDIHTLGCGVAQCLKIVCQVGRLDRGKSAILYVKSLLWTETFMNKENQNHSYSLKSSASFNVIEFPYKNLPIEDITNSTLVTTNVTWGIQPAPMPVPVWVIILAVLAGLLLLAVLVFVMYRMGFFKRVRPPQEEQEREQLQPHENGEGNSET
Chain of αvβ3 integrin (P05106 27-788): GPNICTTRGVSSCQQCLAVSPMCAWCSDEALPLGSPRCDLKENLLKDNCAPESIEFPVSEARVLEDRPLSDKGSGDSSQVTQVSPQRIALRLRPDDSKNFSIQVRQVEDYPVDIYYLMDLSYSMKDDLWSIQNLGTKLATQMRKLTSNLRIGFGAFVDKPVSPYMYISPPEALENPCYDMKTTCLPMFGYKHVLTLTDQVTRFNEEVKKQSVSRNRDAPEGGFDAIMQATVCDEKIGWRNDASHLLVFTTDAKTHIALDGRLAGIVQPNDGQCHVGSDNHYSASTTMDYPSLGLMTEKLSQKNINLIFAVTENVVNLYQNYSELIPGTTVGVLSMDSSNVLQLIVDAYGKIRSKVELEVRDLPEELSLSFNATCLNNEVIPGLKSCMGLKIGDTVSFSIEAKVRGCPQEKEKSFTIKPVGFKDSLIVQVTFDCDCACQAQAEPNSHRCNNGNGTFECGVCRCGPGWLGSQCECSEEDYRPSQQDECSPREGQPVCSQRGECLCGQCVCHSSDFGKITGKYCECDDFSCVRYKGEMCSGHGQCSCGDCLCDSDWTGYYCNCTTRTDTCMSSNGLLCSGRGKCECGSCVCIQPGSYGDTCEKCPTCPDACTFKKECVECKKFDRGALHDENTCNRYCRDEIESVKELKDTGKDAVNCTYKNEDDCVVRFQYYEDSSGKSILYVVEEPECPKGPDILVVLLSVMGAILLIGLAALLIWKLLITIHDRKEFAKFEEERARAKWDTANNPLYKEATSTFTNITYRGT

αvβ5 integrin = αvβ5 integrin (Homo sapiens, UniProt P06756+P18084); details: low affinity; cited from earlier work
Chain of αvβ5 integrin (P06756 31-889 limits assumed): as the sequence (P06756 31-889 limits assumed) above
Chain of αvβ5 integrin (P06756 891-1048 partner limits assumed): as the sequence (P06756 891-1048 partner limits assumed) above
Chain of αvβ5 integrin (P18084 24-799): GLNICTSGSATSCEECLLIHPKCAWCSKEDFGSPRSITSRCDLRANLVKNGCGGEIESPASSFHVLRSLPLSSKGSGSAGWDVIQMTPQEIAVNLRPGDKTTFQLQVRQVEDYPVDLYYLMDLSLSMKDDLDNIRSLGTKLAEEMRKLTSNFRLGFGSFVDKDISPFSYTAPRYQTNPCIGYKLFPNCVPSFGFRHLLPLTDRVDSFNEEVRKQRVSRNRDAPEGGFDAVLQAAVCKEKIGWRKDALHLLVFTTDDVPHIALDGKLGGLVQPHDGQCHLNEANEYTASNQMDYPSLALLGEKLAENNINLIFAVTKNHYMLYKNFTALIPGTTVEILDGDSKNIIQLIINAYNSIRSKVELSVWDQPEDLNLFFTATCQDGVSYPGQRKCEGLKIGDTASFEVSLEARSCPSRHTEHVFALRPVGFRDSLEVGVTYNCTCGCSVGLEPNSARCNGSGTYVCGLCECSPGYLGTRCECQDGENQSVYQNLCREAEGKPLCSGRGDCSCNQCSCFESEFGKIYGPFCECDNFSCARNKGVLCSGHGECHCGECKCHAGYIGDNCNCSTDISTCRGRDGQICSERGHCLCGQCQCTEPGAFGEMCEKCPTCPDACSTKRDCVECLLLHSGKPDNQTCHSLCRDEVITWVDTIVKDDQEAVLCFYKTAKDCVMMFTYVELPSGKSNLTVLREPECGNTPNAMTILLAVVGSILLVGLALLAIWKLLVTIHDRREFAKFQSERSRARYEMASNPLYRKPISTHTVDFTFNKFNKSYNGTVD

αIIBβ3 integrin = αIIBβ3 integrin (Homo sapiens, UniProt P05106+P08514); details: low affinity; cited from earlier work
Chain of αIIBβ3 integrin (P08514 32-887 limits assumed): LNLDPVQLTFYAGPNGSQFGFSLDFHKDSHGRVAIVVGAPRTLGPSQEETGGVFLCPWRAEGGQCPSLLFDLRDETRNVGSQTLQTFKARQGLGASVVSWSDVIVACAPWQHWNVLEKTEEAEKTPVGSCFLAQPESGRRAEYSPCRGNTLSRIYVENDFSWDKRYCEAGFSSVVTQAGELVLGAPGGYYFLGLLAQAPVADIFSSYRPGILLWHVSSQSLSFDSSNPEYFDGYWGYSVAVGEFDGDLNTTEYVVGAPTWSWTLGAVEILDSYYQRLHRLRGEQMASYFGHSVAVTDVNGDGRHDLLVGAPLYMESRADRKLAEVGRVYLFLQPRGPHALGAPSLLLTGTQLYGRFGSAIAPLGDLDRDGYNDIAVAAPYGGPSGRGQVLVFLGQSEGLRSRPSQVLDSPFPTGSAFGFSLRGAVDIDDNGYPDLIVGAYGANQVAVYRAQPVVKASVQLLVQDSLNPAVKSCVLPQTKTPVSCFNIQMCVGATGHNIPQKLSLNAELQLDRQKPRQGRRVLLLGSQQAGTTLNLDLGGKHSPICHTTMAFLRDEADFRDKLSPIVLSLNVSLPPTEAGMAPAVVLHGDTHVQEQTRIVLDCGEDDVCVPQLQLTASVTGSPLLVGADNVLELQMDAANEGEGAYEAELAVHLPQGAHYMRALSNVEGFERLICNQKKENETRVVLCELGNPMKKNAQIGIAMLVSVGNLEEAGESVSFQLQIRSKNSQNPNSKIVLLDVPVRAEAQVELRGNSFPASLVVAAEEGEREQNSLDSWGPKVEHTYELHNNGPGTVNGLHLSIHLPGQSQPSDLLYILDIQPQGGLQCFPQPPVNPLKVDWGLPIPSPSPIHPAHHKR
Chain of αIIBβ3 integrin (P08514 891-1039 partner limits assumed): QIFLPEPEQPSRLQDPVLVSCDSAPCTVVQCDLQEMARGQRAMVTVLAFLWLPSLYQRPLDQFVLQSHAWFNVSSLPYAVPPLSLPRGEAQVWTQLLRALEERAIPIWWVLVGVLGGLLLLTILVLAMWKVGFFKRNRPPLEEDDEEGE
Chain of αIIBβ3 integrin (P05106 27-788): as the sequence (P05106 27-788) above

Substance	Selectivity (kcat/Km ratio for MMP-13 to MMP-x), MMP-1 (MMP-1)	Selectivity (kcat/Km ratio for MMP-13 to MMP-x), MMP-9 (MMP-9)	Selectivity (kcat/Km ratio for MMP-13 to MMP-x), MMP-3 (MMP-3)	other results
C2-12P3A: literature MMP-13 peptide substrate, P4-P3' G A L G L S L (SEQ ID NO: 26) (GALGLSL; test peptide substrate) [Sample C2-12P3A]	8.3	4.6	14	
C2-22: literature MMP-13 peptide substrate, P4-P4' G P R P F N Y L (SEQ ID NO: 24) (GPRPFNYL; test peptide substrate) [Sample C2-22]	180	21	7.9	
C3-16: literature MMP-13 peptide substrate, P4-P4' G P K G V Y S L (SEQ ID NO: 27) (GPKGVYSL; test peptide substrate) [Sample C3-16]	5500	2.2	3600	
C5-27: literature MMP-13 peptide substrate, P4-P4' G P F G F K S L (SEQ ID NO: 25) (GPFGFKSL; test peptide substrate) [Sample C5-27]	2900	4.8	250	
CGGNGEPRGDTYRAY (15-mer bone sialopeptide sequence; bsp-RGD(15))				bsp-RGD(15) surface density needed to support proliferation of NSCs ([1]; grafted on IPN): About 10 pmol·cm^−2
CGGNGEPRGETYRAY (bone sialopeptide sequence; bsp-RGE(15))				NSC adhesion / attachment ([1]; proliferating or differentiating media conditions): did not support attachment
CP: literature MMP-13 peptide substrate, P4-P4' G P L G M R G L (SEQ ID NO: 23) (GPLGMRGL; test peptide substrate)	820	11	1300	
CSRARKQAASIKVAVSADR (lam-IKVAV(19) peptide)				NSC proliferation ([1]; proliferating media (bFGF)): did not enhance either cell proliferation or differentiation; NSC differentiation into neural lineages [2]: did not enhance either cell proliferation or differentiation
H-Glu[cyclo (Arg-Gly-Asp-D-Phe-Lys)]2 [bicyclic RGD peptide reported by Janssen et al]				IC50 (αvβ3 integrin): 0.9 nM; IC50 (αvβ5 integrin): 10 nM; IC50 (αIIBβ3 integrin): 10 nM

— patent US9415135B2, “Methods and compositions for stabilizing the myocardium” (The Regents of the University of California, priority 2002, dated 2016)
